Biological target: T1, wildtype human α-synuclein (human, UniProt P37840 1-140)
Test: ELISA on α-synuclein, twofold dilution series of the antibody

binding result	Binder
binds	humanized 5C1 H3L1 (antibody, V domains shown, The constant region is not specified) VH: QVQLVQSGAELKKPGSSVKVSCKASGYTFTNYWMNWVRQAPGQGLEWIGATNPNNGYTDYNQRFKDRATLTADKSTNTAYMELSSLRSEDTAVYFCASGGHLAYWGQGTLVTVSS VL: DVVMTQSPLSLSVSPGEPASISCRSSQSLFHSKGNTYLHWYLQKPGQSPKLLINRVSNRFSGVPDRFSGSGSGTDFTLKISRVEAEDVGVYFCSQSAHVPWTFGGGTKVEIK
binds	humanized 5C1 H3L3 (antibody, V domains shown, The constant region is not specified) VH: QVQLVQSGAELKKPGSSVKVSCKASGYTFTNYWMNWVRQAPGQGLEWIGATNPNNGYTDYNQRFKDRATLTADKSTNTAYMELSSLRSEDTAVYFCASGGHLAYWGQGTLVTVSS VL: DVVMTQSPLSLSVSPGEPASISCRSSQSLFHSKGNTYLHWYLQKPGQSPQLLINRVSNRFSGVPDRFSGSGSGTDFTLKISRVEAEDVGVYFCSQSAHVPWTFGGGTKVEIK

Binder	binding result
humanized 5C1 H1L1 (antibody, V domains shown, The constant region is not specified) VH: QVQLVQSGAELKKPGSSVKVSCKASGYTFTNYWMNWVRQAPGQGLEWIGATNPNNGYTDYNQRFKDRATLTADKSTNTAYMELSSLRSEDTAVYYCARGGHLAYWGQGTLVTVSS VL: DVVMTQSPLSLSVSPGEPASISCRSSQSLFHSKGNTYLHWYLQKPGQSPKLLINRVSNRFSGVPDRFSGSGSGTDFTLKISRVEAEDVGVYFCSQSAHVPWTFGGGTKVEIK	no binding (tested: 1000 (x axis has no unit))

Biological target: T1, wildtype human α-synuclein
Test: SPR (Biacore), antibody captured on anti-human IgG chip, alpha synuclein flowed over, 1:1 model, global fit
Experimental: An anti-human IgG CMS Biacore chip was prepared following the protocol supplied by GE Healthcare.
Data was collected and double reference subtracted to account for drift and a small amount of nonspecific binding. The data was analyzed using BIAcore evaluation software using a 1:1 model and a global fit.

Binder	Kd [nM]	koff [s⁻¹]	kon [M⁻¹ s⁻¹]
humanized 5C1 H4L3 (antibody, V domains shown, The human constant region is not specified; also called h5C1_H4L3) VH: QVQLVQSGAELKKPGSSVKVSCKASGYTFTNYWMNWVRQAPGQGLEWIGATNPNNGYTDYNQRFKDRATLTADKSTNTAYMELSSLRSEDTAVYYCASGGHLAYWGQGTLVTVSS VL: DVVMTQSPLSLSVSPGEPASISCRSSQSLFHSKGNTYLHWYLQKPGQSPQLLINRVSNRFSGVPDRFSGSGSGTDFTLKISRVEAEDVGVYFCSQSAHVPWTFGGGTKVEIK	120	0.0051	
humanized 5C1 H3L4 (antibody, V domains shown, It was captured on an anti-human IgG chip, so it carries a human constant region, which is not specified; also called h5C1_H3L4) VH: QVQLVQSGAELKKPGSSVKVSCKASGYTFTNYWMNWVRQAPGQGLEWIGATNPNNGYTDYNQRFKDRATLTADKSTNTAYMELSSLRSEDTAVYFCASGGHLAYWGQGTLVTVSS VL: DIVMTQSPLSLSVSPGEPASISCRSSQSLFHSKGNTYLHWYLQKPGQSPQLLIYRVSNRFSGVPDRFSGSGSGTDFTLKISRVEAEDVGVYFCSQSAHVPWTFGGGTKVEIK	1240		
humanized 5C1 H4L4 (antibody, V domains shown, The human constant region is not specified; also called h5C1_H4L4) VH: QVQLVQSGAELKKPGSSVKVSCKASGYTFTNYWMNWVRQAPGQGLEWIGATNPNNGYTDYNQRFKDRATLTADKSTNTAYMELSSLRSEDTAVYYCASGGHLAYWGQGTLVTVSS VL: DIVMTQSPLSLSVSPGEPASISCRSSQSLFHSKGNTYLHWYLQKPGQSPQLLIYRVSNRFSGVPDRFSGSGSGTDFTLKISRVEAEDVGVYFCSQSAHVPWTFGGGTKVEIK	601		
humanized 5C1 H5L4 (antibody, V domains shown, The human constant region is not specified; also called h5C1_H5L4) VH: QVQLVQSGAELKKPGSSVKVSCKASGYTFTNYWMNWVRQAPGQGLEWIGATNPNNGYTDYNQRFKDRVTITADKSTNTAYMELSSLRSEDTAVYYCASGGHLAYWGQGTLVTVSS VL: DIVMTQSPLSLSVSPGEPASISCRSSQSLFHSKGNTYLHWYLQKPGQSPQLLIYRVSNRFSGVPDRFSGSGSGTDFTLKISRVEAEDVGVYFCSQSAHVPWTFGGGTKVEIK	1060		

More lines, now with the values ahead:

Kd [nM]	koff [s⁻¹]	kon [M⁻¹ s⁻¹]	Binder
86	0.0053		chimeric 5C1 antibody (antibody, V domains shown, also called Ch5C1) VH: QVQLQQSGAELAKPGTSVQMSCKASGYTFTNYWMNWIKARPGQGLEWIGATNPNNGYTDYNQRFKDKAILTADKSSNTAYMHLSSLTSEDSAVYFCASGGHLAYWGQGTVVTVSA VL: DVVMTQIPLYLSVSPGDQASISCRSSQSLFHSKGNTYLHWYLQKPGQSPKLLINRVSNRFSGVPDRFSGSGSGTDFTLKISGVEAEDLGVYFCSQSAHVPWTFGGGTKLEIR
68.7	0.0051	75000	murine 5C1 antibody (antibody, mouse IgG1, V domains shown, also called m5C1; mouse 5C1) VH: QVQLQQSGAELAKPGTSVQMSCKASGYTFTNYWMNWIKARPGQGLEWIGATNPNNGYTDYNQRFKDKAILTADKSSNTAYMHLSSLTSEDSAVYFCASGGHLAYWGQGTVVTVSA VL: DVVMTQIPLYLSVSPGDQASISCRSSQSLFHSKGNTYLHWYLQKPGQSPKLLINRVSNRFSGVPDRFSGSGSGTDFTLKISGVEAEDLGVYFCSQSAHVPWTFGGGTKLEIR
283			humanized 5C1 H5L3 (antibody, V domains shown, The human constant region is not specified; also called h5C1_H5L3) VH: QVQLVQSGAELKKPGSSVKVSCKASGYTFTNYWMNWVRQAPGQGLEWIGATNPNNGYTDYNQRFKDRVTITADKSTNTAYMELSSLRSEDTAVYYCASGGHLAYWGQGTLVTVSS VL: DVVMTQSPLSLSVSPGEPASISCRSSQSLFHSKGNTYLHWYLQKPGQSPQLLINRVSNRFSGVPDRFSGSGSGTDFTLKISRVEAEDVGVYFCSQSAHVPWTFGGGTKVEIK

Source: patent publication US20190315843A1 (PROTHENA BIOSCIENCES, published 2019)
